Where only a bound is given, the exact number is not on record here.

Our source for the binding signal (% probe shifted) values is PMC8457756.

Holding throughout (experiment): EMSA
Common to all, as to details: EMSA: 0.5 uM dsDNA probe, semi-pure TF titrated, PBS + NP40, 10 uL; 6% polyacrylamide gel, 0.5x TBE, 100 V 1 h, room temperature running buffer; pH and …
On the technique in general: Mobility shift assays separate free from complexed probe on a gel.

The subject of series [1] is GntR_1482 (Clostridium thermocellum DSM 1313).
Series [2] relates to Rex_2471 (Clostridium thermocellum DSM 1313).
Series [3] has as its system BlaI_1845 (Clostridium thermocellum DSM 1313).
The subject of series [4] is TetR_0692 (Clostridium thermocellum DSM 1313).
Series [5] relates to GlyR2 (Clostridium thermocellum DSM 1313).

As for “ACCCCTGATTATGACAACATGACAGTAACAATCCGG (double strand) [GntR_1482 test oligo]”, the binding signal (% probe shifted) in series [1] is above 70.

With “ATTATTTTATTTTGTTATATTTTTAACAAAAAAATTATT (double strand) [Rex_2471 test oligo]”, the binding signal (% probe shifted) in series [2] is above 70.

Take “CAGGATGTAATGGCTTGTCGTCAGACCGGAG (double strand) [Rex_2471 negative oligo]”: the binding signal (% probe shifted) in series [2] was below 10.

As to “GACCATAACAATAGTCCAAGTTCATCT (double strand) [BlaI_1845 test oligo]”, the binding signal (% probe shifted) in series [3] was above 70.

For the sequence “TAAGCAGGGATATGACCACGTGGTCACCGTCCTCTG (double strand) [TetR_0692 test oligo]”, the binding signal (% probe shifted) in series [4] was above 70.

In the case of “TAATTGGATCTTTGTTAATTGCAGTTTT (double strand) [GntR_1482 negative oligo]”, the binding signal (% probe shifted) in series [1] was below 10.

Consider “TATAGCACCGGTAACATTACAAATCATAGAAT (double strand) [GlyR2 test oligo]”, for which the binding signal (% probe shifted) in series [5] is above 70.

For “TGATATGGGGTGTTTGCTGTTTTTGCC (double strand) [negative oligo 27 bp]”, the binding signal (% probe shifted) in series [3], in series [5] and in series [4] was below 10 in each case.
